This note sets out measurements from article PMC3443293.

Holding throughout (experiment): AUC
In assay [1] the target is human nectin-3 ectodomain (D1-D3) (human) (UniProt Q9NQS3).
Assay [2] addresses human nectin-1 ectodomain (D1-D3) (human) (UniProt Q15223).
For assay [3], the target named is mouse nectin-3 ectodomain (D1-D3 with part of the stalk) (mouse) (UniProt Q9JLB9).

Chain of human nectin-3 ectodomain (D1-D3) (Q9NQS3 58-359): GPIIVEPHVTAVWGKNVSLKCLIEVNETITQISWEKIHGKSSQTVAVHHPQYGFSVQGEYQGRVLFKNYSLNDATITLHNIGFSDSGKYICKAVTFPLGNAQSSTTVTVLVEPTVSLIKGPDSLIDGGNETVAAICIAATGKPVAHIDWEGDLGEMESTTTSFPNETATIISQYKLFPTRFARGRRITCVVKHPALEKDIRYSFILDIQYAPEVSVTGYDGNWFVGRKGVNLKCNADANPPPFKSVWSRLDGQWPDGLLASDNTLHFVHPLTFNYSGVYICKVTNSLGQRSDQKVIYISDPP
Chain of mouse nectin-3 ectodomain (D1-D3 with part of the stalk) (Q9JLB9 58-401): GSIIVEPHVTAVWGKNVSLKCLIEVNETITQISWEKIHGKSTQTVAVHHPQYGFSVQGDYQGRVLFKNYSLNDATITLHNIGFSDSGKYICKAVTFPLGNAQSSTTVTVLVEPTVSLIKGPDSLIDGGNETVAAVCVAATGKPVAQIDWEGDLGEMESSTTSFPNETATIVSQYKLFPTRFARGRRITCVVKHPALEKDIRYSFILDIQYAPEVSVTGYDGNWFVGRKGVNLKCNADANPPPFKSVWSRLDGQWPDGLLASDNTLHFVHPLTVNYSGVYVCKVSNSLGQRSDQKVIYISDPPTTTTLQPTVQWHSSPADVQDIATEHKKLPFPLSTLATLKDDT
Chain of human nectin-1 ectodomain (D1-D3) (human) (Q15223 31-337): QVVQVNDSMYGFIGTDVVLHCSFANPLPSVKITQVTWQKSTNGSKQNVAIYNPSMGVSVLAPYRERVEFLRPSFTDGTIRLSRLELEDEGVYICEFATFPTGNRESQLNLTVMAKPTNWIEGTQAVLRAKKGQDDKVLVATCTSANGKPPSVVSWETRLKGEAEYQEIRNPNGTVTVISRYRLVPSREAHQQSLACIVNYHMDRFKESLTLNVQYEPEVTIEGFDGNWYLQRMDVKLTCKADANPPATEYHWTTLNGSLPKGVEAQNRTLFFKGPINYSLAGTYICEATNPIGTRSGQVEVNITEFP

For the substance “human nectin-3 ectodomain (D1-D3) (from UniProt Q9NQS3 58-359) (domain or fragment)”, in assay [1], the Kd – broadly, the concentration at which binding is half-saturated – was 228 µM and the stoichiometry N (usually a count of units in the complex or per binding partner) came out at 2. For the same substance, the stoichiometry N in assay [2] turned out to be 1.
In assay [3], “mouse nectin-3 ectodomain (D1-D3 with part of the stalk) (from UniProt Q9JLB9 58-401) (domain or fragment)” yielded a Kd of 122 µM and a stoichiometry N of 2.
